B5: rKv1.1N (other, rat, UniProt P10499 1-164, looked up)
chain: MTVMSGENADEASAAPGHPQDGSYPRQADHDDHECCERVVINISGLRFETQLKTLAQFPNTLLGNPKKRMRYFDPLRNEYFFDRNRPSFDAILYYYQSGGRLRRPVNVPLDMFSEEIKFYELGEEAMEKFREDEGFIKEEERPLPEKEYQRQVWLLFEYPESSG
notes: Bait of the specificity test; the construct is not described; also called Kv1.1 subunits; rKvl.iN

Assay [1] deals with T1, rat Kv4.2 α-subunit (rat, UniProt Q63881 1-630).
T1 sequence (looked up): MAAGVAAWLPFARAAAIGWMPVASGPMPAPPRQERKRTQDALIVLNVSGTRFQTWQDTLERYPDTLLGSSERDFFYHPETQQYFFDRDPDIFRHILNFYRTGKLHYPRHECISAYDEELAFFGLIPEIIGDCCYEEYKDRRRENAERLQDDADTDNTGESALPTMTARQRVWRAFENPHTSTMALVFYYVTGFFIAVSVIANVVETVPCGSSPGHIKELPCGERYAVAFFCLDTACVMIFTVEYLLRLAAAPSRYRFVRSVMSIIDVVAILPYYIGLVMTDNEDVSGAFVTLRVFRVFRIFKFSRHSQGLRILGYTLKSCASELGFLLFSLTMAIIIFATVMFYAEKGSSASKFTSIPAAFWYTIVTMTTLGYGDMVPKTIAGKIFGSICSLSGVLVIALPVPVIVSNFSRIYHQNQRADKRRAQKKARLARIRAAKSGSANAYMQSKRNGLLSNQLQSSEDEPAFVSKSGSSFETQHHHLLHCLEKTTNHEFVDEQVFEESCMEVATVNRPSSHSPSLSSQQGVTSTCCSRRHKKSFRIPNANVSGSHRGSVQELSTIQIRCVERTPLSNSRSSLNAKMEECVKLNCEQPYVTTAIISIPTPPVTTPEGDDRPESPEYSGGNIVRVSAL
Put plainly: cell-based or functional assay.

The target of assay [2] is T2, Kv2.1 (rat brain membranes) (rat, UniProt P15387 1-857).
T2 sequence (looked up): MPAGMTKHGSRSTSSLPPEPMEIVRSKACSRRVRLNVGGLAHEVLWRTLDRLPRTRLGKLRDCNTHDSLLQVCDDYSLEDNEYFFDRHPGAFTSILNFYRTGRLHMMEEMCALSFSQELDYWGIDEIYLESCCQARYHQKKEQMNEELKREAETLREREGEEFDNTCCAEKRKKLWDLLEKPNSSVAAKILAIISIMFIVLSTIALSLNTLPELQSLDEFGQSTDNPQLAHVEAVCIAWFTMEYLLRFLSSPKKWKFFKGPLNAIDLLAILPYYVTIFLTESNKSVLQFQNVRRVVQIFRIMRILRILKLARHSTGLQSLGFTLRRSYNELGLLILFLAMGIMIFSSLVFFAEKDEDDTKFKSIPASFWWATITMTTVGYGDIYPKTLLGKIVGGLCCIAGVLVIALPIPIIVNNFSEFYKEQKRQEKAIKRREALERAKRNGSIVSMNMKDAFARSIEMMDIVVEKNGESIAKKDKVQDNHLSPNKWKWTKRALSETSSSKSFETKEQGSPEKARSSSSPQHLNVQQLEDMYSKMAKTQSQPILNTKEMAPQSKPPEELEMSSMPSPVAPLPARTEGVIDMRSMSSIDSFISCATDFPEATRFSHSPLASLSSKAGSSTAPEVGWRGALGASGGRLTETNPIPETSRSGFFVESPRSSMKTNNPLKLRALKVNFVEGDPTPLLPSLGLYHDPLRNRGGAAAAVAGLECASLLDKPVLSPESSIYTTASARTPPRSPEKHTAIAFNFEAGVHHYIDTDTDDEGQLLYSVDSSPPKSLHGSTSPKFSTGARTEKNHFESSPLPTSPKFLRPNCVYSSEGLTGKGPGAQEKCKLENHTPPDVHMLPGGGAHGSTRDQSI
Put plainly: co-immunoprecipitation from rat brain synaptic membranes.

The target of the assay “rKv1.1N” is B5. Put plainly: yeast two-hybrid.
In a further assay the target is T3, rat 19r (rat, UniProt P16446 1-271, limits assumed).
T3 construct: also called partial rat 19r; phosphatidylinositol transfer protein alpha
T3 sequence: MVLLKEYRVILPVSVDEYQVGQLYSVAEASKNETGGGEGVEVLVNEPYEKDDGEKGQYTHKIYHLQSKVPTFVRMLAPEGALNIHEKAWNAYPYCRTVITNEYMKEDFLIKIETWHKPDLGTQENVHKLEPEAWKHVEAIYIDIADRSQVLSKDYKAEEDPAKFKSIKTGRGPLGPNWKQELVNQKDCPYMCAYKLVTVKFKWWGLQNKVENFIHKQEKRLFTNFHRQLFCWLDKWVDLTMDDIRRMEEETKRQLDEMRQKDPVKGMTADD
Put plainly: yeast two-hybrid.

A further assay deals with T4, rat 1p (rat, UniProt B9EHT4 181-427 (mouse entry), limits assumed).
T4 construct: Partial-length clone, two-hybrid prey; also called Ip; lp
T4 sequence: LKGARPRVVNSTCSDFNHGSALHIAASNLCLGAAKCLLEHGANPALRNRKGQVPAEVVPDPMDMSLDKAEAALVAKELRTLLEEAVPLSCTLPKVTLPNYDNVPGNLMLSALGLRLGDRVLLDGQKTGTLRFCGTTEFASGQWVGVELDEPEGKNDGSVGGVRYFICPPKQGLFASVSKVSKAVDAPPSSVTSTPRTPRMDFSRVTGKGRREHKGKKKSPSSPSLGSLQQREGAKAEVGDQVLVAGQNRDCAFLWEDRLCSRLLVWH
Nature of the assay: yeast two-hybrid.

The next assay addresses T5, rat 7s (rat, UniProt P50516 348-617 (mouse entry), limits assumed).
T5 construct: Partial-length clone, two-hybrid prey; Rat ortholog of the vacuolar H(+)-ATPase catalytic subunit A
Nature of the assay: yeast two-hybrid.

In assay [3] the target is T1, rat Kv4.2 α-subunit. Nature of the assay: immunoprecipitation from rat brain membranes.

T5 sequence (P50516 348-617 limits assumed): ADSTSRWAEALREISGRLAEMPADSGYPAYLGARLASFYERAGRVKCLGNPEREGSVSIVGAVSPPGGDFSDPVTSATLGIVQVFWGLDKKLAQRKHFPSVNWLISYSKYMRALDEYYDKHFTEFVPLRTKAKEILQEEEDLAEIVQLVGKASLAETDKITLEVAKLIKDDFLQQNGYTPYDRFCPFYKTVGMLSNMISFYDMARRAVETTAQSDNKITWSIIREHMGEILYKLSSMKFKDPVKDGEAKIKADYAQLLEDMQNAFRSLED

B1: rat 1v (other)
chain: MPARVLLAYPGTEMLTQGESEGLQTLGIVVVLCSSLKLLHYLGLIDLSDDKIEDDLEMTMVCHRPEGLEQLEAQTNFTKRELQVLYRGFKNECPSGVVNEETFKQIYAQFFPHGDASTYAHYLFNAFDTTQTGSVKFEDFVTALSILLRGTVHEKLRWTFNLYDINKDGYINKEEMMDIVKAIYDMMGKYTYPVLKEDTPRQHVDVFFQKMDKNKDGIVTLDEFLESCQEDDNIMRSLQLFQNVM
notes: also called KChIP1; KchIP1
As for B1, in the assay with rat Kv4.2 α-subunit [1], the “Kv4.2 current density in CHO cells, fold increase with coexpression of KChIP1” value was found to be 12 fold and the “amplitude of the Kv4.2 current in CHO cells, fold increase in the presence of KChIP1” value is around 7.5 fold. In addition, the binding result in assay [2] was “no binding”.

B2: rat 5p (other)
chain: MPSQMEHAMETMMLTFHRFAGEKNYLTKEDLRVLMEREFPGFLENQKDPLAVDKIMKDLDQCRDGKVGFQSFLSLVAGLIIACNDYFVVHMKQKK
notes: Two-hybrid prey; also called Calpactin I light chain; P10
Take B2: the binding result with rKv1.1N was “no binding”.

B3: rat 7q (other)
chain: MAYAYLFKYIIIGDTGVGKSCLLLQFTDKRFQPVHDLTIGVEFGARMITIDGKQIKLQIWDTAGQESFRSITRSYYRGAAGALLVYDITRRDTFNHLTTWLEDARQHSNSNMVIMLIGNKSDLESRREVKKEEGEAFAREHGLIFMETSAKTASNVEEAFINTAKEIYEKIQEGVFDINNEANGIKIGPQHAATNASHGGNQGGQQAGGGCC
notes: Two-hybrid prey; The full length was obtained by RACE PCR; also called RAB2
With B3, in the assay with rKv1.1N, the binding result was “no binding”.

B4: rat 29x (other)
chain: ARLPAPEHARQQPLLSGPEPGSSARVPVPGVASRRQPRGGKPPSGDGLESGPSPRPLLHARGEAGLHRQSGRVPHTGTAYFADEPTEAQAPGGFCVSPSLLGVRWPACATRTPGSLPLSPPSAQPRTLWPTPPAGPSSRMVARNQVAADNAISPASEPRRRPEPSSSSSSSSPAAPARPRPCPVVPAPAPGDTHFRTFRSHSDYRRITRTSALLDACGFYWGPLSVHGAHERLRAEPVGTFLVRDSRQRNCFFALSVKMASGPTSIRVHFQAGRFHLDGSRETFDCLFELLEHYVAAPRRMLGAPLRQRRVRPLQELCRQRIVAAVGRENLARIPLNPVLRDYLSSFPFQI
notes: Two-hybrid prey; also called SOCS-1; JAB
With B4, the binding result with rKv1.1N is listed as “no binding”.
On to B5, for which the binding result in the assay with rat 19r, with rat 1p and with rat 7s was “no binding” throughout.

B6: rat 33b07 (other)
chain: MNGVEGNNELPLANTSTSALVPEDLDLKQDQPLSEETDTVREMEAAGEAGAEGGASPDSEHCDPQLCLRVAENGCAAAAGEGLEDGLSSSKCGDAPLASVAANDSNKNGCQLAGPLSPAKPKTLEASGAVGLGSQMMPGPKKTKVMTTKGAISATTGKEGEAGAAMQEKKGVQKEKKAAGGGKDETRPRAPKINNCMDSLEAIDQELSNVNAQADRAFLQLERKFGRMRRLHMQRRSFIIQNIPGFWVTAFRNHPQLSPMISGQDEDMMRYMINLEVEELKHPRAGCKFKFIFQSNPYFRNEGLVKEYERRSSGRVVSLSTPIRWHRGQEPQAHIHRNREGNTIPSFFNWFSDHSLLEFDRIAEIIKGELWSNPLQYYLMGDGPRRGVRVPPRQPVESPRSFRFQSG
notes: also called partial rat 33b07 (clone name 9o)
With B6, the binding result with rKv1.1N was “no binding”.

B7: rat 9qm (other)
chain: MRGQGRKESLSESRDLDGSYDQLTGHPPGPSKKALKQRFLKLLPCCGPQALPSVSENSVEDEFELSTVCHRPEGLEQLQEQTKFTRRELQVLYRGFKNECPSGIVNEENFKQIYSQFFPQGDSSNYATFLFNAFDTNHDGSVSFEDFVAGLSVILRGTIDDRLSWAFNLYDLNKDGCITKEEMLDIMKSIYDMMGKYTYPALREEAPREHVESFFQKMDRNKDGVVTIEEFIESCQQDENIMRSMQLFDNVI
For the molecule B7, the binding result with rat Kv4.2 α-subunit [3] is listed as “binds”.

B8: KChIP3 of rat brain membranes (other, UniProt Q9JM47 1-256, looked up)
chain: MQRTKEAMKASDGSLLGDPGRIPLSKREGIKWQRPRFTRQALMRCCLIKWILSSAAPQGSDSSDSELELSTVRHQPEGLDQLQAQTKFTKKELQSLYRGFKNECPTGLVDEDTFKLIYSQFFPQGDATTYAHFLFNAFDADGNGAIHFEDFVVGLSILLRGTVHEKLKWAFNLYDINKDGYITKEEMLAIMKSIYDMMGRHTYPILREDAPLEHVERFFQKMDRNQDGVVTIDEFLETCQKDENIMSSMQLFENVI
notes: also called PCIPs (KChIPs 1, 2, and 3)
Take B8: the binding result in assay [2] was “no binding”.

B9: KChIP2 of rat brain membranes (other, UniProt Q9JM59 1-270, looked up)
chain: MRGQGRKESLSESRDLDGSYDQLTGHPPGPSKKALKQRFLKLLPCCGPQALPSVSETLAAPASLRPHRPRPLDPDSVEDEFELSTVCHRPEGLEQLQEQTKFTRRELQVLYRGFKNECPSGIVNEENFKQIYSQFFPQGDSSNYATFLFNAFDTNHDGSVSFEDFVAGLSVILRGTIDDRLSWAFNLYDLNKDGCITKEEMLDIMKSIYDMMGKYTYPALREEAPREHVESFFQKMDRNKDGVVTIEEFIESCQQDENIMRSMQLFDNVI
notes: as for B8
For B9, in assay [2], the binding result was “no binding”.
